Measured values: the Immune Epitope Database (IEDB)

What was measured:
HLA-A*02:03 [1] = assay: IEDB peptide-MHC binding, purified MHC/direct/fluorescence; filed as Kd, often an IC50 or EC50 that approximates it; ≥ and ≤ were set here for values at or beyond the usual limits of such assays
HLA-A*69:01 = assay: as above
HLA-B*15:42 = assay: IEDB peptide-MHC binding, purified MHC/competitive/fluorescence; filed as Kd, often an IC50 or EC50 that approximates it; ≥ and ≤ were set here for values at or beyond the usual limits of such assays; settings: source organism: Mycobacterium tuberculosis variant bovis BCG str. Pasteur 1173P2
HLA-B*45:06 = assay: as above; settings: source organism: Mycobacterium tuberculosis variant bovis BCG str. Pasteur 1173P2
HLA-B*83:01 = assay: as above; settings: source organism: Mycobacterium tuberculosis variant bovis BCG str. Pasteur 1173P2
HLA-A*02:01 = assay: IEDB peptide-MHC binding, purified MHC/direct/fluorescence; filed as Kd, often an IC50 or EC50 that approximates it; ≥ and ≤ were set here for values at or beyond the usual limits of such assays
HLA-A*02:11 = assay: as above
HLA-A*02:12 = assay: as above
HLA-A*02:16 = assay: as above
HLA-A*02:19 = assay: as above
HLA-A*03:01 = assay: as above
HLA-A*24:03 = assay: as above
HLA-A*26:01 = assay: as above
HLA-A*29:02 = assay: as above
HLA-A*68:02 = assay: as above
HLA-B*15:01 = assay: as above
HLA-B*15:17 = assay: as above
HLA-B*18:01 = assay: as above
HLA-B*27:03 = assay: as above
HLA-B*46:01 = assay: as above
HLA-B*51:01 = assay: as above
HLA-B*57:01 = assay: as above
HLA-B*39:01 = assay: as above; settings: source organism: Entamoeba histolytica HM-1:IMSS
HLA-C*03:03 = assay: as above
HLA-B*48:01 = assay: IEDB peptide-MHC binding, purified MHC/competitive/fluorescence; filed as Kd, often an IC50 or EC50 that approximates it; ≥ and ≤ were set here for values at or beyond the usual limits of such assays
HLA-A*01:01 = assay: IEDB peptide-MHC binding, purified MHC/direct/fluorescence; filed as Kd, often an IC50 or EC50 that approximates it; ≥ and ≤ were set here for values at or beyond the usual limits of such assays
HLA-A*11:01 = assay: as above; settings: source organism: Lake Victoria marburgvirus - Popp
HLA-A*31:01 = assay: as above; settings: source organism: Lake Victoria marburgvirus - Popp
HLA-B*07:02 = assay: as above; settings: source organism: Lake Victoria marburgvirus - Popp
HLA-B*08:01 = assay: as above; settings: source organism: Orthomarburgvirus marburgense
HLA-B*15:09 = assay: as above
HLA-B*27:05 = assay: as above
HLA-B*40:01 = assay: as above; settings: source organism: Lake Victoria marburgvirus - Popp
HLA-B*58:01 = assay: as above
HLA-A*30:01 = assay: IEDB peptide-MHC binding, purified MHC/competitive/fluorescence; filed as Kd, often an IC50 or EC50 that approximates it; ≥ and ≤ were set here for values at or beyond the usual limits of such assays
HLA-B*44:02 = assay: IEDB peptide-MHC binding, purified MHC/direct/fluorescence; filed as Kd, often an IC50 or EC50 that approximates it; ≥ and ≤ were set here for values at or beyond the usual limits of such assays; settings: source organism: Yellow fever virus
HLA-A*23:01 = assay: as above; settings: source organism: Influenza A virus (A/Memphis/1/1986(H3N2))
HLA-B*08:02 = assay: as above; settings: source organism: Escherichia coli O157:H7 str. EC869
HLA-A*02:03 [2] = assay: IEDB peptide-MHC binding, purified MHC/competitive/fluorescence; filed as Kd, often an IC50 or EC50 that approximates it; ≥ and ≤ were set here for values at or beyond the usual limits of such assays; settings: source organism: Human immunodeficiency virus 1
[3] = source organism: Listeria monocytogenes serotype 4b str. H7858
[4] = source organism: Entamoeba histolytica HM-1:IMSS
[5] = source organism: Francisella tularensis subsp. holarctica LVS
[6] = source organism: Francisella tularensis subsp. tularensis FSC033
[7] = source organism: Lake Victoria marburgvirus - Popp
[8] = source organism: Orthomarburgvirus marburgense
[9] = source organism: Yellow fever virus
[10] = source organism: Influenza A virus (A/Memphis/1/1986(H3N2))

Measured: Kd

AIYDTMQYV
≥ 5 µM: HLA-B*15:42 | HLA-B*45:06 | HLA-B*83:01
0.006 µM: HLA-A*69:01; source organism: Mycobacterium tuberculosis
0.003 µM: HLA-A*02:03 [1]; source organism: Mycobacterium tuberculosis str. Haarlem

ERYPGGVSL
≥ 20 µM: HLA-A*02:01; [3] | HLA-A*02:03 [1]; [3] | HLA-A*02:11; [3] | HLA-A*02:12; [3] | HLA-A*02:16; [3] | HLA-A*02:19; [3] | HLA-A*03:01; [3] | HLA-A*24:03; [3] | HLA-A*26:01; [3] | HLA-A*29:02; [3] | HLA-A*68:02; [3] | HLA-A*69:01; [3] | HLA-B*15:01; [3] | HLA-B*15:17; [3] | HLA-B*18:01; [3] | HLA-B*27:03; [3] | HLA-B*46:01; [3] | HLA-B*51:01; [3] | HLA-B*57:01; [3]

FIILSTGKY
0.072 µM: HLA-B*15:17; [4]
≥ 20 µM: HLA-A*02:01; [4] | HLA-A*02:11; [4] | HLA-A*02:12; [4] | HLA-A*02:16; [4] | HLA-A*02:19; [4] | HLA-A*03:01; [4] | HLA-B*18:01; [4] | HLA-B*27:03; [4] | HLA-B*39:01 | HLA-B*57:01; [4]

FLYDISISL
≤ 0.001 µM: HLA-A*02:11; [6] | HLA-C*03:03; source organism: Francisella tularensis subsp. tularensis FSC198
0.0011 µM: HLA-A*02:01; [5]
0.007 µM: HLA-A*02:19; [6]
0.0157 µM: HLA-A*69:01; [5]
0.003 µM: HLA-A*02:12; [6]

FPDGKPFTL
≥ 20 µM: HLA-A*02:01; [3] | HLA-A*02:03 [1]; [3] | HLA-A*02:11; [3] | HLA-A*02:12; [3] | HLA-A*02:16; [3] | HLA-A*02:19; [3] | HLA-A*03:01; [3] | HLA-A*26:01; [3] | HLA-A*29:02; [3] | HLA-B*15:01; [3] | HLA-B*15:17; [3] | HLA-B*18:01; [3] | HLA-B*27:03; [3] | HLA-B*46:01; [3] | HLA-B*51:01; [3] | HLA-B*57:01; [3]

FQLYPPQIL
0.033 µM: HLA-C*03:03; [4]
0.077 µM: HLA-B*48:01; [4]

GELRKAICL
≥ 20 µM: HLA-A*01:01; [7] | HLA-A*02:01; [7] | HLA-A*11:01 | HLA-A*26:01; [8] | HLA-A*31:01 | HLA-A*68:02; [7] | HLA-A*69:01; [7] | HLA-B*07:02 | HLA-B*08:01 | HLA-B*15:09; [8] | HLA-B*15:17; [7] | HLA-B*27:05; [7] | HLA-B*57:01; [7] | HLA-B*58:01; [7] | HLA-A*30:01; [8] | HLA-B*48:01; [8]
9 µM: HLA-B*18:01; [7]
0.074 µM: HLA-B*40:01

IQYVIRAQL
≥ 20 µM: HLA-A*01:01; [9] | HLA-A*03:01; [9] | HLA-B*15:09; [9] | HLA-B*27:05; [9] | HLA-B*44:02 | HLA-B*46:01; [9] | HLA-B*57:01; [9] | HLA-B*58:01; [9]

LQAMHGFPL
0.0968 µM: HLA-B*48:01; source organism: Escherichia coli O157:H7 str. EDL933

NHDGIQAGV
≥ 20 µM: HLA-A*02:01; [10] | HLA-A*02:03 [1]; [10] | HLA-A*02:11; [10] | HLA-A*02:12; [10] | HLA-A*02:16; [10] | HLA-A*02:19; [10] | HLA-A*03:01; [10] | HLA-A*23:01 | HLA-A*24:03; [10] | HLA-A*26:01; [10] | HLA-A*29:02; [10] | HLA-A*68:02; [10] | HLA-A*69:01; [10] | HLA-B*15:01; [10] | HLA-B*15:17; [10] | HLA-B*18:01; [10] | HLA-B*27:03; [10] | HLA-B*46:01; [10] | HLA-B*51:01; [10] | HLA-B*57:01; [10]

RMKMRRPHL
2.36 µM: HLA-B*08:02

RSLYNTIAVLY
1.91 µM: HLA-A*30:01; source organism: Human immunodeficiency virus 1
0.679 µM: HLA-A*02:03 [2]
